Source: patent US20200407449A1 (PHARMABCINE, published 2020)

Experiments:
[1] = molecular target: T1, hVISTA-Fc (R&D systems. Cat. No. 7126-B7) (human, UniProt Q9H7M9 33-194); experiment: Octet (BLI), antibody immobilised on biosensor, antigen in solution
T1 construct: Bought antigen; also called human VISTA-Fc; VISTA-FC Human
T1 sequence: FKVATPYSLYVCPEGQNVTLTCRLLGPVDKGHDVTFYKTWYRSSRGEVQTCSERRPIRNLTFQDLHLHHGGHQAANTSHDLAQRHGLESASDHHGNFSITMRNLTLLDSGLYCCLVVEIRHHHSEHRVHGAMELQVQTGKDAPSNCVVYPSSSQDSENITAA
Experimental: (§1) The binding ability of the screened antibody to the antigen was measured using an Octet (ForteBio). For this purpose, the antibody was immobilized on a biosensor, various concentrations of antigen were added to a 96-well plate, and then the binding ability was measured.

mouse VISTA-Fc [2] = molecular target: T2, mouse VISTA-Fc (mouse, UniProt Q9D659 33-191); experiment: as above
T2 construct: extracellular domain; also called mVISTA-Fc; VISTA-FC Mouse; not shown: Fc portion
T2 sequence (looked up): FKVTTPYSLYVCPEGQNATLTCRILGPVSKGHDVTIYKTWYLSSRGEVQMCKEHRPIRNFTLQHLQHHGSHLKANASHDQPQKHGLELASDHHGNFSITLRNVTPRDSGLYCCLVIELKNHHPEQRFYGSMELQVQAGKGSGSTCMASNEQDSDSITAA
Experimental: as §1

[3] = molecular target: T1, hVISTA-Fc (R&D systems. Cat. No. …); experiment: dissociation rate constant of scFv in the screening of optimised clones; antigen not named
[4] = molecular target: T1, hVISTA-Fc (R&D systems. Cat. No. …); experiment: monoclonal scFv phage ELISA, plate coated with 1 ug/ml VISTA-Fc, anti-M13-HRP
Experimental: After the panning process was completed, the final round cell stock was diluted to form 200 to 500 colonies, spread on a CM agar plate, and then incubated overnight at 37° C. The next day, when the colonies grew, 200 μl of 2xYT medium (CM 34 μg/ml+1% glucose) was plated onto a 96-well deep plate, the colony was inserted into each well one by one and the plate was then incubated overnight at 37° C. and 3,000 rpm. The next day, 200 μl of 2×YT medium (CM 34 μg/ml+1% glucose) was plated onto a new 96-well dip plate, and […] of cells grown the day before were injected into each well and grown at 37° C. and 3,000 rpm for 1 hour and 10 minutes. The remaining cells were stored at −70° C. in 100 pμl of 50% glycerol. When the cells grew, 1 μl of a helper phage was mixed with 19 μl of 2×YT medium, and 20 μl of the resulting mixture was injected into each well and incubated for 30 minutes at 37° C. After incubation, centrifugation was performed at 3,000 rpm for 10 minutes. The supernatant was discarded and 200 μl of 2×YT medium (CM 34 μg/ml+Kan. 70 μg/ml+1 mM IPTG+5 mM MgCl₂) was added to the residue, followed by incubation in MegaGrow at 30° C. and 3,000 rpm overnight.
1 μg/ml of Ag (hVISTA-Fc, mVISTA-Fc) was plated at 100 μl/well onto a 96-well immunoplate and then incubated overnight at 4° C. The next day, the cells grown the day before were centrifuged at 3,000 rpm for 10 minutes and stored at 4° C. The plated Ag was washed 3 times with 0.05% PBST, and then 200 μl of 2% BSA blocking buffer was added thereto, followed by incubation at 25° C. for 2 hours. After blocking was completed, the result was washed 3 times with 0.05% PBST. […] After phage binding was completed, the reaction product was washed three times with 0.05% PBST, 100 μl of HRP-conjugated mouse anti-M13 antibody (1:3000, #GE 27-9421-01) was added thereto, and reaction was allowed to proceed at 25° C. for 1 hour. After the reaction was completed, the resulting product was washed 3 times with 0.05% PBST, 100 μl of TMB (#BD TMB substrate reagent set 555214) was added thereto, color was developed for 3 to 5 minutes, 50 μl of a stop solution was added thereto, and then an assay was performed using an ELISA reader.

mouse VISTA-Fc [5] = molecular target: T2, mouse VISTA-Fc; experiment: ELISA, plate coated with 1 ug/ml mouse VISTA-Fc, antibody at 1 ug/ml, anti-human IgG (kappa)-peroxidase
Experimental: ELISA assay: 1 μg/ml of Ag (human VISTA-Fc or mouse VISTA-Fc) was plated at 100 μl/well onto a 96-well plate and incubated at 4° C. overnight. The next day, the plated Ag was washed 3 times with 0.05% PBST and 200 μl of 2% BSA blocking buffer was added thereto, followed by incubation at 25° C. for 2 hours. After blocking was completed, the resulting product was washed 3 times with 0.05% PBST. 1 μg/ml of each antibody was injected at 100 μl/well and incubated at 25° C. for 1 hour. After incubation was completed, the resulting product was washed 3 times with 0.05% PBST and 100 μl of goat anti-human IgG (kappa)-conjugated peroxidase (1:2000, Bethyl Lab #A80-115P) was added thereto, followed by incubation at 25° C. for […]. After incubation, the resulting product was washed 3 times with 0.05% PBST, 100 μl of TMB (BD TMB substrate reagent set #555214) was added, color was developed for 3 to 5 minutes, 50 μl of a stop solution was added thereto, and then an assay was performed using an ELISA reader.

B1: anti-VISTA antibody 2C12 (IgG form) (antibody, V domains shown)
VH: QVQLVESGAEVKKPGASVKVSCKASGYIFTDYYMHWVRQAPGQGLEWMGVINPYDGRTSFAQKFQGRLTVTRDTSTSTAYMDLSGLRSEDTAVYYCAKQMGIWDYDAFDIWGQGTMVTVSS
VL: QFVLTQPSSVSGAPGQRVIISCTGSSSNIGAGYDVHWYQQLPGTAPKVLIYGNSDRPSGVPDRFSASKSATSASLAITGLQAEDEADYYCVAWDDSLKAYVFGTGTKVTVLG
notes: also called #2C12(H); #2C12(M)
- Kd [1]: 1.02 nM
- koff [1]: 8.48e-05 s⁻¹
- kon [1]: 83400 M⁻¹ s⁻¹
- Kd (mouse VISTA-Fc [2]): 14 nM
- koff (mouse VISTA-Fc [2]): 0.00078 s⁻¹
- kon (mouse VISTA-Fc [2]): 55700 M⁻¹ s⁻¹

B2: 1B8 monoclonal scFv phage (scFv, V domains shown)
VH: QMQLVQSGAEVKKPGSSVKVSCKASGGSSSNYAISWVRQAPGQGLEWMGGIIPIFGTTSYAQKFQGRVTITADGSMSTAYMELSSLRSEDTAVYYCAKGAIEPWPFYFDNWGQGTLVTVSS
VL: QLVLTQPRSVSGSPGQSVTISCTGTNSDVGAYNYLSWYQQLPGRAPKVIIYDVNKRPSGVPDRFSGSRSGKTASLTISGLQAEDEADYYCAAWDDSLNGLVFGGGTKLTVLG
notes: also called IB8; Anti VISTA.3.0 (1B8)
- koff [3]: 0.000732 s⁻¹
- OD [4]: 2.13 OD

B3: Anti VISTA_H2 (scFv phage clone) (scFv, V domains shown)
VH: QMQLVQSGAEVKKPGSSVKVSCKASGGSSSNYAISWVRQAPGQGLEWMGGIIPIFGTTSYAQKFQGRVTITADGSMSTAYMELSSLRSEDTAVYYCAKGAIEPWPFYFDNWGQGTLVTVSS
VL: QLVLTQPRSVSGSPGQSVTISCTGTNSDVGAYNYLSWYQQLPGRAPKVIIYDVNKRPSGVPDRFSGSRSGKTASLTISGLQAEDEADYYCAAWDDNLNGLVFGGGTKLTVLG
notes: Optimised 1B8 variant that retains the 1B8 heavy-chain variable region, measured as scFv
- koff [3]: 0.000285 s⁻¹

B4: Anti VISTA_G1 (scFv phage clone) (scFv, V domains shown)
VH: QMQLVQSGAEVKKPGSSVKVSCKASGGSSSNYAISWVRQAPGQGLEWMGGIIPIFGTTSYAQKFQGRVTITADGSMSTAYMELSSLRSEDTAVYYCAKGAIEPWPFYFDNWGQGTLVTVSS
VL: QLVLTQPRSVSGSPGQSVTISCTGTNSDVGAYNYLSWYQQLPGRAPKVIIYDVNKRPSGVPDRFSGSRSGKTASLTISGLQAEDEADYYCAAWDDSLIGHVFGGGTKLTVLG
notes: as for B3
- koff [3]: 0.000574 s⁻¹

B5: Anti VISTA_V3_3 (scFv phage clone) (scFv, V domains shown)
VH: QMQLVQSGAEVKKPGSSVKVSCKASGGSSSNYAISWVRQAPGQGLEWMGGIIPIFGTTSYAQKFQGRVTITADGSMSTAYMELSSLRSEDTAVYYCAKGAIEPWPFYFDNWGQGTLVTVSS
VL: QLVLTQPRSVSGSPGQSVTISCTGTNSDVGAYNYLSWYQQLPGRAPKVIIYDVNKRPSGVPDRFSGSRSGKTASLTISGLQAEDEADYYCAAWDDSLNVLVFGGGTKLTVLG
notes: as for B3
- koff [3]: 0.00127 s⁻¹

B6: Anti VISTA_B5 (scFv phage clone) (scFv, V domains shown)
VH: QMQLVQSGAEVKKPGSSVKVSCKASGGSSSNYAISWVRQAPGQGLEWMGGIIPIFGTTSYAQKFQGRVTITADGSMSTAYMELSSLRSEDTAVYYCAKGAIEPWPFYFDNWGQGTLVTVSS
VL: QLVLTQPRSVSGSPGQSVTISCTGTNSDVGAYNYLSWYQQLPGRAPKVIIYDVNKRPSGVPDRFSGSRSGKTASLTISGLQAEDEADYYCAAWDDDLNGLVFGGGTKLTVLG
notes: Optimised 1B8 light-chain CDR3 variant, measured as scFv
- koff [3]: 0.000616 s⁻¹

B7: Anti VISTA_V3_4 (scFv phage clone) (scFv, V domains shown)
VH: QMQLVQSGAEVKKPGSSVKVSCKASGGSSSNYAISWVRQAPGQGLEWMGGIIPIFGTTSYAQKFQGRVTITADGSMSTAYMELSSLRSEDTAVYYCAKGAIEPWPFYFDNWGQGTLVTVSS
VL: QLVLTQPRSVSGSPGQSVTISCTGTNSDVGAYNYLSWYQQLPGRAPKVIIYDVNKRPSGVPDRFSGSRSGKTASLTISGLQAEDEADYYCAAWDDNSDFHVFGGGTKLTVLG
notes: as for B3
- koff [3]: 0.00222 s⁻¹

B8: Anti VISTA_V3_2 (scFv phage clone) (scFv, V domains shown)
VH: QMQLVQSGAEVKKPGSSVKVSCKASGGSSSNYAISWVRQAPGQGLEWMGGIIPIFGTTSYAQKFQGRVTITADGSMSTAYMELSSLRSEDTAVYYCAKGAIEPWPFYFDNWGQGTLVTVSS
VL: QLVLTQPRSVSGSPGQSVTISCTGTNSDVGAYNYLSWYQQLPGRAPKVIIYDVNKRPSGVPDRFSGSRSGKTASLTISGLQAEDEADYYCAAWDDSLNDLVFGGGTKLTVLG
notes: as for B3
- koff [3]: 0.00108 s⁻¹

B9: Anti VISTA_V3_1 (scFv phage clone) (scFv, V domains shown)
VH: QMQLVQSGAEVKKPGSSVKVSCKASGGSSSNYAISWVRQAPGQGLEWMGGIIPIFGTTSYAQKFQGRVTITADGSMSTAYMELSSLRSEDTAVYYCAKGAIEPWPFYFDNWGQGTLVTVSS
VL: QLVLTQPRSVSGSPGQSVTISCTGTNSDVGAYNYLSWYQQLPGRAPKVIIYDVNKRPSGVPDRFSGSRSGKTASLTISGLQAEDEADYYCAAWDDSLYGLVFGGGTKLTVLG
notes: as for B3
- koff [3]: 0.000487 s⁻¹

B10: anti-VISTA antibody 3C5 (IgG form) (antibody, V domains shown)
VH: QVQLVQSGAEVKKPGASVKLSCKASGYTFSSYWMHWVRQAPGQRLEWMGEINPGNGHTNYNEKFKSRVTITVDKSASTAYMELSSLRSEDTAVYYCAKDIAYYDFWSGDAFDLWGQGTMVTVSS
VL: SYELTQPLSVSVSPGQTASITCSGDKLGNKYASWYQQKPGQSPVLVIYQDNKRPSGIPERFSGSNSGNTATLTISGTQATDEADYYCQTWDRSTGVFGTGTKVTVLG
- binding result (mouse VISTA-Fc [5]): no binding (tested: 1 ug/ml)
- Kd [1]: 13.9 nM
- koff [1]: 0.00367 s⁻¹
- kon [1]: 264000 M⁻¹ s⁻¹

B11: 3C5 monoclonal scFv phage (scFv, V domains shown)
VH: QVQLVQSGAEVKKPGASVKLSCKASGYTFSSYWMHWVRQAPGQRLEWMGEINPGNGHTNYNEKFKSRVTITVDKSASTAYMELSSLRSEDTAVYYCAKDIAYYDFWSGDAFDLWGQGTMVTVSS
VL: SYELTQPLSVSVSPGQTASITCSGDKLGNKYASWYQQKPGQSPVLVIYQDNKRPSGIPERFSGSNSGNTATLTISGTQATDEADYYCQTWDRSTGVFGTGTKVTVLG
- OD [4]: 2.2 OD

B12: anti-VISTA antibody 1A12 (IgG form) (antibody, V domains shown)
VH: QMQLVESGGGLVEPGRSLRLSCTTSGFSFHDYTMYWVRQVPGKGLEWVSLISWDGTITFYADPVRGRFTISRDNSKNSLYLQMNSLRAEDTAVYYCAKEDRYDYYSGAFDIWGQGTVVTVSS
VL: QSALTQPRSVSGSPGQSVTISCTGTSSDVGGYDYVSWYQQHPGKAPKLILNDVNKRPSGVPDRFSGSKSGNTASLTISGLQPDDEADYYCSSFAGSNTLRVFGGGTKLTVLG
- binding result (mouse VISTA-Fc [5]): no binding (tested: 1 ug/ml)
- Kd [1]: 0.546 nM
- koff [1]: 2.74e-05 s⁻¹
- kon [1]: 50200 M⁻¹ s⁻¹

B13: 1A12 monoclonal scFv phage (scFv, V domains shown)
VH: QMQLVESGGGLVEPGRSLRLSCTTSGFSFHDYTMYWVRQVPGKGLEWVSLISWDGTITFYADPVRGRFTISRDNSKNSLYLQMNSLRAEDTAVYYCAKEDRYDYYSGAFDIWGQGTVVTVSS
VL: QSALTQPRSVSGSPGQSVTISCTGTSSDVGGYDYVSWYQQHPGKAPKLILNDVNKRPSGVPDRFSGSKSGNTASLTISGLQPDDEADYYCSSFAGSNTLRVFGGGTKLTVLG
- OD [4]: 1.88 OD
